Twelve sequences from a protein production outcome set (Wang et al. 2014) can be followed below.

The data set in a line: label from the status in PepcDB records.
“MFEAARFGDEISHTSALGGFLIGAALGIALVATVAIATFTCGFGVALLAGLAAGIGGSLLTAAGEAIGSMFSSPSGTITTASPNVFINSRKAARVEKSIGACDKHPGPVQIAEGSTNVFINSVAAARKGDKLTCGATISGGSDNVIIGGGTYRYLPVDDEVPEWLRTTVDVLMAIAGAAGGIAQLIKAGTQAGMKAVMPCALKFTAGFVAGEVASRYVVEPVARKAIGGLVGNPVDLTTGRKLIPDEIDFSLPGLMPIEWSRFYASDLTVDSVLGRGWVLPWEQSLRRQGAFIYLTDNQGREVPFVTLQPGQRIYNPHEQVYLVCTEGGHYILQTLDNLFFYFGEVPDTNTEVPLQRIENVLGHFLHFTRTPDGTLTDISATGGTRVHLHYDNPLGRLTDIKRVVNNEAVETLTQYRYDEHGQLSAVINRNGDTVRSFSYADGLMVTHSNALGLGCHYRWQTLGDKPRVVEHWTSDGEHYHFRYDLDSRTSWATDVLGRELEVQYNADHRVVASRDYGGERYAIELDEHGNMVGLTLPDGNRLQFKYDEFSRLLEETDPLGRKTQYEYHHLTTLVTQVSYPDGSTWRARFDDKGNLLAEFDALGQMTEYLNSDDGLPHTIIDATYKSKYLWWNTLAQVERYQDCSGKSTYYRYDERQHLVAVTDALNQTTTLARKPDGEVLRISHPDGTTESFTYNVYGQVLSHTDGKGQTTRLMRTARGLPSSRQDAKGQRVRYEYDKAMRLTALVNENNATYSFAYDASDRLSEEVRVDNLTRRFSYDVGGHLTRLDEIGYGENAERPERHTLFERDAIGRLIAKLNSDAQQRFTYDDGDRLLSIERQPTGIGKQLGITEEKLEYAYDLLGRLTKEISPDGTLGYEYDPLSNLTTLTLPDGRKVNHLYYGSGHLHQLNLDGQVISDMERDDLHREVYRTQGKLTSCFGYDAMGRKAWQFASTLPADKLSQVHNTGINTSLLVEHAYNPIHRRYQYDPAGELVRTLDKLRGEIKYEYEANGQLRSRDTGSLIGSEEFRYDPAANRLDFNARQFDKVKDNRIKQWRDQEYRYDPWGNLIEKRSGHSKLQHFSYDCENRLVRAETLVNGKLESQGEYRYDSLGRRIAKQAEINGEVEQKRFLWQGLRMLREETPGQSILYLYEPGSYAPLARVDQVEGEGQKVYYFHTDQIGTPLELTDSEGEIVWQATYRSWGTIETLSIKEVDQNLRFQGQYFDAETGLHYNTFRYYYSEVGRYVTQDPIGLDGGLNLYRYGQNPAGWIDPWGWECWSTARKNYWKAEAKAPTRAYSPTNLVRMAEGKAPKMTVEVISRKTDKISIREYALELHHNDIPQRVGGAGVHDSSNLLALTPWEHEAVDQFRHVGSDLIRVIKGVDVW”: the protein production entry is recorded as “failed”. The same measure for “MFENFSPSTMLAIKKYAYWLWLLLALSMPFNYWMAQDSAHPAFWAFSLVIAVFGIGPLLDMLFGRDPANPDEETQTPQLLGQGYYVLLTLATVPVLIGTLVWAAGVFVAFQEWGWLGRLGWILSMGTVMGAVGIVVAHELIHKDSALEQAAGGILLAAVCYAGFKVEHVRGHHVHVSTPEDASSARFGQSVYQFLPHAYKYNFLNAWRLEAVRLRKKGLPVFGWQNELIWWYLLSLALLVGFGWAFGWLGMVFFLGQAFVAVTLLEIINYVEHYGLHRRKGEDGRYERTNHTHSWNSNFVFTNLVLFHLQRHSDHHAFAKRPYQVLRHYDDSPQMPSGYAGMVVLALIPPLWRAVMDPKVRAYYAGEEFQLTAEQSERPAAS”: “failed”; for “MFERFTDRARRVIVLAQEEARMLNHNYIGTEHILLGLIHEGEGVAAKALESMGISLDAVRQEVEEIIGQGSQPTTGHIPFTPRAKKVLELSLREGLQMGHKYIGTEFLLLGLIREGEGVAAQVLVKLGADLPRVRQQVIQLLS”: “not failed”; for “MFEVTVSKRLLKSGIIVSAMTLISRVLGLVRDVVVANLMGAGASADVFFFANRIPNFLRRLFAEGAFSQAFVPVLTEYHASGDINKTRDLIARASGTLGVLVTIVTLIGVLGSGAVTALFGAGWFLDWLNGGPAAGKFELASLLLKITFPYLWFITFVALSGAILNTLGKFAVSSFTPVFLNVMMILCAWYLSPNLEQPEVGLAIGVFLGGLVQFLFQLPFLIKAGVLVRPKWGWKDPGVVKIRTLMIPALFGVSVSQINLLFDSFVASFLQTGSISWLYYSDRLLEFPLGLFGIAIATVILPALSRKHVDAHSDGFAHTMDWGIRMVTFLGIPAMLGLMVLAKPMLMVLFMRGEFTPSDVEQASYSLLAYSSGLLSFMLIKVLAPGYYSRQDTKTPVRYGIIAMVSNIVLNAIFAWFYGYVGLAVATSMSAFLNMALLYRGLHLQGVYHLTRKTVWFVARLAMAGAVMTGALLWQLDTMATWLSWGISQRALTLTGLIGLGVASYLAILLLLGVRLKDLKAATE”: “failed”. For “MFEYRCSSIDWKPSPVVALATSADGSQVAAAREDGSLELWLVSPGASSWHCQLIIHGDPKSRISHLAWFGTGSKGSSSARLFSSSIDGSISEWDLFDLKQKVVLDSIGFSIWQIALAPISIEAESKEAKLIQNGYLSEKSDDEEESGVEDDSELDELDEKVEALDRHLAAACDDGCVRIYYISESDKLTYYRSLPRVTGRALSVTWSADAQRIFSGSSDGLIRCWDANLCHEVYRITVGLGGLGNGSELCIWSLLSLRYGVLVSGDSTGSVQFWDSQHGTLLQAHSNHKGDVNALAASPSHNRVFSAGADGQVILYKLSGGTSRSQDFKPSSAQKWDYIGCVRAHTHDIRALTVAVPISWEGSIPDRNAKVTSPKQRRKEPAGFSYHKWAHLGVPMLISAGDDAKLYAYSVQEFTKFPPHDICPAPQRVPMQMVHNTVFNQTSLLLVQDSCSLDILRIHISNDSSGRVSTKPLVRVKSKDARKIICSAISNTGSLFAYSDQVRPSLFELKKNKIGKNPWSANRKRLPNLPFAHSMVFSCDCSRLIIAGHDRRIYIVDVGSMELLHSFTPRQEGQEGESPPHEPPITKLYTSSNDDWLAAINCFGDIYVFNLETQRQHWFISRLDGASVAAAGFHPRDNNVIVISTSSNQVFALDVEARELSKWSLLQTFCLPKSYQNFPGEVVGLSFSPSPCSSSVIIYSSRAKCLIEFGKPAEQDEDTDTPCNLSEKLEGKLASISMKLGNGAQKRRLEEYQKESKSNKRKKFEMVTSKHPVLYLRHLSKSAILVIEKPWMEVIKNLDTQPVHRHIFGT”, the protein production entry is listed as “failed”.

With “MFFNKKNNQDELKKLAATEAAKSITTEITLGVGTGSTVGFLIEELVNYRDKIKTVVSSSEDSTRKLKALGFDVVDLNYAGEIDLYIDGADECNNHKELIKGGGAALTREKICVAAAKKFICIIDESKKVNTLGNFPLPIEVIPMARSYIARQIVKLGGQPVYREQTITDNGNVILDVYNLKIDNPLKLETELNQITGVVTNGIFALKPADTVIMATKDSNIVVL”, the protein production entry is “not failed”. For “MFGLSKRAITILFGLLALAFALGAILLFTPQAGQQTRGKPVLWVNGKALYELDLLRLQGNDPLYAASPEGLLKTLVDTYFLEQVILTEALKQDAARVRVSSAEVRQEVNRIREQFGLKDKAAYEQFLNQVGYTDAQLRAEVKTQLQIQKRLEQIRSGAKPTEEEVRFYYEVFKENYRTEPRVKARQIVVDDKALAEELAAKAKAGEDFAALARQHSKVGAEQGGALGAGPGEAEPKPVTQVVFPTEVGEAVFALKGPGVVGPIAAGGRYYIVKVEEYLPSTLPAFEEVKDRVAQDAERAKGNGVLEAYLEELRKKAQVRFAEDNPYAYQNPPVAKVNEKEILLSEVLQPVFSNQQTVALVQQGLGELAVQFFLPQTLENLIDRELLVEAARKSGKPFIGSKAEIAEAYLRYETRDVTASEEEARAFYSENPALFTVPASAKVIGVNFKEEAQAKAFRAAALRGGDLEALAKAQEGTVTDYGTVNPNQLPAVLDRLVFKITETFPQGPLGEVSEVIKMEDGSYTVLLISDRKAEELKGFAQVAEEARQGAVNRKRSEKAQALIQALREEAKIENRLAEVLQALTPKTPSQDQPNSQEQPQPEEAPANNP”, the protein production entry was “failed”. As for “MFGPFKPAPHIAELPAEKIDSTYKRLRWQVFAGIFFGYAAYYFVRANFDLAQPGLIQAGLYSKAELGVIGSAAGLAYGLSKFVMAGMSDRSNPRVFLPFGLLLSGLCMTLMGLFPWATSGIAIMWVMIFLNGWFQGMGWPPCGRTMVHWWSKSERGTIVSIWNTAHNIGGMVPGAMVLLASAIFFSTHGIEAQAKDVWQQSLYFPGIAAMIFAIPVYFVMRDTPQSCGLPSIEKWRNDYPDDYNEKTYENDLTAKEIFVTYVLKNKLLWYIAIANVFVYLIRYGVLKWSPVYLSEVKHFNIKGTAWAYTIYELAAVPGTLLCGWVSDKVFKGKRGLTGFIFMILTTAAVVAYWMNPATPEAELANYSAWYENPYQLTDFVLMTLIGFLIYGPVMLIGLHALELAPKKAAGTAAGFTGLFGYLGGTVSASAVIGWAAQHYGWDGGFYVMIGGGVLAVLLLLIVMVEEGKHKAKLGDTYGTK”, the protein production result is reported as “failed”.

As to “MFIMQPEDTMTLIHDIILASWDILLEAAPYVLFGFFVAGLLKAYVPASFVARHLGRGHVGPVFKAALFGIPLPLCSCGVIPAAAGLRQQGASKGATTSFLIATPETGVDSMAVTWALLDPVMTVARPFAALLTSVAAGLMVDLFPERKRGESEISPPVMSPSRDAALHDGPTTLPAPVIAPVLHGAAGIAAAGSVSLGPIREHAACTCSGHASVAASACCGTSHSVSAPSGASCGCGSAAHAHSGTGCCGHDTPIGQVSGGFSGVVERFRGGMRFAFGELVADIGGWLLLGVVLAAVITILIPDDLFSGTFASGIGGILLMMVVGIPLYVCATASTPIAAAFALKGISPGAALVFLLAGPATNVATITVVARMLGRKAAVIYVAVIGVMSVALGLAVNMLYGWLGMGVTGWVQGSADAEPGMLSAVAAVVLLLLVLYQWLPALVARLRGEAHPAGCGCGH”, the protein production result is recorded as “failed”. For “MFITFEGIDGSGKTTQSHLLAEYLSEIYGVNNVVLTREPGGTLLNESVRNLLFKAQGLDSLSELLFFIAMRREHFVKIIKPSLMQKKIVICDRFIDSTIAYQGYGQGIDCSLIDQLNDLVIDVYPDITFIIDVDINESLSRSCKNGYEFADMEFYYRVRDGFYDIAKKNPHRCHVITDKSETYDIDDINFVHLEVIKVLQMV”, the protein production result is on record as “not failed”.

Regarding “MFIYGSDRLGGKMDINGFIEELDSLYTERRINDVEPFFNESIEQAKKENDLAAQFTILNEMMGFFRDTSQFEKSIKACNDCIELMKKMGIEGTVDYATSLQNVANAYRAAGKLAESLEVYKEVFSIYNENIPSDDYRMASLNNNIALLYQEMNDFPMAVQHLKKALSIIEKIEGMDIEVATTYTNLAASLIEINQASQAEDYLKKALEIFDRDEVKNFHYSGALCAMASVKCSLNQYEEAAKLYEKALPEIEANMGRGSAYNITKENLAKVFDKIKEEKKELTGIELAKSFYEEYGKDMIHNNFSEYEDKIAVGFVGEGSERFGFDDVYSRDHDFGPGFCMWITEDVYEKIGEKLQDEYNKLPKSYKGITRVDTIMAEGRVGVCVVEDFYKKYTGSGDGNLTLEQWINLEDYKIATVTNGEVFRDDLGYFSKIRRKFENQPFQARLVKLARQLGAMAQTGQSNYERAMARKDYVTAQICISDFMKETMKCVYILNNKFAPYYKWLFKGVSRLDGTEKIVSLLEKLSQLPAQKNAWDGYLYDNTKFNEKDEKAIIMEEIAKIIIDKLLELKLIKNRNSNFLNDYVRPIMDLAEGKVEMFDREKTIDKIVKLEFEAFDKVQNVGGRASCQNNWPFFYVMRKSQYMTWTDEMLECICNLWEENKAKGWNMITEKYGRMMEHTSPEEYKKIKDNFPEKSERTIAIVNQIAQIQVDWMKDFAKSYPKLASNARDITSDADQIDNTSYETYLKGELLTYSEELLKLYAQFIVNLAREGKNLAYMTIENTAHLQGYATLEAAESSIR”, the protein production result is reported as “failed”. As for “MFKGLRYLTFVFGGLLGILLAYGFGQVVELELSKFAVISIYSIFAIIFGIIFYLLFPVILKKLTVNFENMIKKAQKTPTSDIVTAIIGLIVGLIIAFLISLPISNIKFPVIGNLLSATITIFIYCALGFIGIKIAVDKKEEILKFKLFSREKSFKKGHVYPKILDTSVIIDGRIYDIIKTGFLEGPIIIAMFMVKELQYIADSEDPNRRQRGRRGLDILDLLQNEKNIEIKIVDKDYKNIKEVDHKLLKLTEDYHGKLITNDYNLNKVASLQKISILNINELALAVKPVVIQGEKLIVEVINRGKEPEQGLGYLSDGTMIVVEDGKDYIGQTIETTVTSILQTPAGKMIFTRKNLK”, the protein production entry is given as “failed”.
